Experimental data taken from US20250136677A1 (ZOETIS SERVICES, published 2025).
Changes are numbered by the printed parent chain. Names may count otherwise.

T1: canine IL-31 protein (Canine_IL31) (canine)
T1 chain: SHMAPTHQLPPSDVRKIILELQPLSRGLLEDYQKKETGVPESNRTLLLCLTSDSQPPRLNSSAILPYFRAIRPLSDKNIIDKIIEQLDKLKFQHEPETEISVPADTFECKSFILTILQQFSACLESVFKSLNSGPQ

T2: wildtype feline IL-31 protein (Feline_IL31_wildtype) (feline)
T2 construct: Full length feline IL-31 with C-terminal His tag, secreted from ExpiCHO cells; also called fIL-31
T2 chain: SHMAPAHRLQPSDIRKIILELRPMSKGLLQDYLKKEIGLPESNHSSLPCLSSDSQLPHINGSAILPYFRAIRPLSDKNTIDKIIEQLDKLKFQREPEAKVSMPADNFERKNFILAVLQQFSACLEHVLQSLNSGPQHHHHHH

B1: Feline 15H05 1.1 FW2 (antibody, V domains shown)
VH: QVLLVQSGAEVRTPGASVKIFCKASGYSFTSYTIHWLRQAPAQGLEWMGNINPTSGYTENNQRFKDRLTLTADTSTNTAYMELSSLRSADTAMYYCARWGFKYDGEWSFDVWGAGTTVTVSS
VL: EIQMTQSPSSLSASPGDRVTITCRASQGISIWLSWYQQKPGNIPKVLINKASNLHIGVPSRFSGSGSGTDFTLTISSLEPEDAATYYCLQSQTYPLTFGGGTKLEIK
notes: also called felinized 15H05 1.1 FW2
B2: Feline 15H05 1.1 FW1_3 (antibody, V domains shown)
VH: B1 VH
VL: DIQMNQSPSSLSASLGDTITVTCRASQGISIWLSWYQQKPGKVPKLLIYKASNLHIGVPPRFSGSGSGTHFTLTITSLQPEDIATYYCLQSQTYPLTFGGGTKLEIK
notes: Printed as 'Feline 15H05 1.1 FW13'
B3: Feline 15H05 1.2 (antibody, V domains shown)
VH: B1 VH
VL: EITMTQSPGSLAGSPGQQVTMNCRASQGISIWLSWYQQKPGQHPKLLIYKASNLHIGVPDRFSGSGSGTDFTLTISNLQAEDVASYYCLQSQTYPLTFGGGTKLEIK
notes: Feline heavy and kappa constant regions
B4: Feline 15H05 VH2 mouse VL (antibody, V domains shown)
VH: B1 VH with S28G, L37V, A40S
VL: B2 VL with K42N, V43I, L46V, Y49N, K107N
notes: also called felinized 15H05 VH2 with mouse 15H05 VL (heterochimera)
B5: Feline 15H05 1.3 (antibody, V domains shown)
VH: B1 VH
VL: EVVLTQSSAFLSRTLKEKATITCRASQGISIWLSWYQQKPNQAPKLLVKKASNLHIGAPSRFSGSGSGTDFTLTISSPEPEDAATYYCLQSQTYPLTFGGGTKLGDQ
notes: as for B3
B6: Feline 15H05 VH3 mouse VL (antibody, V domains shown)
VH: B1 VH with T13K, A42E
VL: B2 VL with K42N, V43I, L46V, Y49N, K107N
notes: Heterochimeric antibody; also called felinized 15H05 VH3 with mouse 15H05 VL (heterochimera)
B7: Feline 15H05 1.1 FW1_2 (antibody, V domains shown)
VH: B1 VH
VL: B1 VL with E1D, T5N, P15L, R18T, V19I, I21V
B8: Feline 15H05 1.1 FW2_3 (antibody, V domains shown)
VH: B1 VH
VL: B1 VL with S60P, D70H, S76T, E79Q, A83I
B9: Feline 15H05 1.1 V43I (antibody, V domains shown)
VH: B1 VH
VL: B1 VL with N42K, V46L, N49Y
B10: Feline 15H05 1.1 FW3 (antibody, V domains shown)
VH: B1 VH
VL: B2 VL with D1E, N5T, L15P, T18R, I19V, V21I
B11: Feline 15H05 1.1 Y49N (antibody, V domains shown)
VH: B1 VH
VL: B1 VL with N42K, I43V, V46L
B12: Feline 15H05 VH1 mouse VL (antibody, V domains shown)
VH: B1 VH
VL: B2 VL with K42N, V43I, L46V, Y49N, K107N
notes: Heterochimeric antibody; also called felinized 15H05 VH1 with mouse 15H05 VL (heterochimera)
B13: Feline 15H05 3.3 (antibody, V domains shown)
VH: B1 VH with T13K, A42E
VL: B5 VL
notes: as for B3
B14: Feline 15H05 3.1 (antibody, V domains shown)
VH: B1 VH with T13K, A42E
VL: B1 VL with N42K, I43V, V46L, N49Y
notes: as for B3
B15: Feline 15H05 1.1 L46V (antibody, V domains shown)
VH: B1 VH
VL: B1 VL with N42K, I43V, N49Y
B16: Feline 15H05 2.2 (antibody, V domains shown)
VH: B1 VH with S28G, L37V, A40S
VL: B3 VL
notes: as for B3
B17: Feline 15H05 1.1 (antibody, V domains shown)
VH: B1 VH
VL: B1 VL with N42K, I43V, V46L, N49Y
notes: as for B3
B18: Feline 15H05 1.1 FW1 (antibody, V domains shown)
VH: B1 VH
VL: B2 VL with P60S, H70D, T76S, Q79E, I83A
B19: Feline 15H05 2.3 (antibody, V domains shown)
VH: B1 VH with S28G, L37V, A40S
VL: B5 VL
notes: as for B3
B20: Feline 15H05 3.2 (antibody, V domains shown)
VH: B1 VH with T13K, A42E
VL: B3 VL
notes: as for B3
B21: Feline 15H05 1.1 K42N (antibody, V domains shown)
VH: B1 VH
VL: B1 VL with I43V, V46L, N49Y
B22: Feline 15H05 1.1 K42N_V43I (antibody, V domains shown)
VH: B1 VH
VL: B1 VL with V46L, N49Y
B23: A30 (antibody, V domains shown)
VH: B1 VH with T30A
VL: B1 VL
B24: Feline 15H05 2.1 (antibody, V domains shown)
VH: B1 VH with S28G, L37V, A40S
VL: B1 VL with N42K, I43V, V46L, N49Y
notes: as for B3
B25: Feline_11E12 1.1_K46Q (antibody, V domains shown)
VH: QVLLVQSGAEVKKPGASVKIFCKASGYSFTYYDINWLRQAPEQGLEWMGWIFPGDGGTKYNETFKGRLTLTADTSTNTVYMELSSLRSADTAMYYCARGGTSVIRDAMDYWGQGALVTVSS
VL: EIQMTQSPSSLSASPGDRVTITCRASESVDNYGISFMHWYQQKPGQVPKLLIYRASNLESGVPSRFSGSGSGTDFTLTISSLEPEDAATYYCQQSNKDPLTFGQGTKLEIK
notes: felinized 11E12 with the single VL substitution K46Q; copies: 2 + 2

What was measured:
[1] = molecular target: T1, canine IL-31 protein (Canine_IL31); test: SPR (Biacore), IL-31 on chip, 1:1 fit
[2] = molecular target: T2, wildtype feline IL-31 protein …; test: SPR (Biacore), IL-31 on chip, 1:1 fit
Experimental: The affinity with which candidate mAbs bind canine and feline IL-31 was determined using surface plasmon resonance (SPR) on a Biacore system (Biocore Life Sciences (GE Healthcare), Uppsala, Sweden). To avoid affinity differences associated with differential surface preparation that can occur when immobilizing antibodies to surfaces; a strategy was employed where IL-31 was directly conjugated to the surface. Immobilization was obtained by amine coupling 5 μg/mL IL-31 using N-hydroxysuccinimide (NHS)/1-Ethyl-3-(3-dimethylaminopropyl) carbodiimide (EDC) chemistry. Chips were quenched with ethanolamine and the affinity with which all candidate mAbs bound to the immobilized IL-31 was evaluated. All curves were fit to a 1:1 model. […] Results for affinity measurements are described herein.

[3] = molecular target: T2, wildtype feline IL-31 protein …; test: cell-based or functional assay
[4] = molecular target: T2, wildtype feline IL-31 protein …; test: Biacore, feline IL-31 chip, mAb 100 nM, share of points within parent mean +/-3 SD; parameters: key: % of mutant data points within parent mAb mean ±3 SD
Description: The mean response unit of four replicates of the parent mAb+/−3 standard deviations was used to generate parameters to define a threshold of response units comprising both the on- and off-rates antibody binding (FIG. 22). The percentage of data points for each mutant fell within this threshold was then used to define a “% similarity score” (FIG. 23).

Row | Binder | koff [1] | kon [1] | Kd [2] | koff [2] | kon [2] | Kd [1] | % Inhibition Relative to Parent (pSTAT, FCWF-4 cells) [3] | Binding Similarity score [4]
1 | B1 | 1.66e-07 s⁻¹ | 384000 M⁻¹ s⁻¹ | 0.065 nM | 2.49e-05 s⁻¹ | 383000 M⁻¹ s⁻¹ |  |  | 
2 | B2 | 2.88e-08 s⁻¹ | 6590 M⁻¹ s⁻¹ | 0.0674 nM | 3.02e-05 s⁻¹ | 448000 M⁻¹ s⁻¹ |  |  | 
3 | B3 | 0.000115 s⁻¹ | 33000 M⁻¹ s⁻¹ | 104 nM | 0.00147 s⁻¹ | 14100 M⁻¹ s⁻¹ |  |  | 
4 | B4 | 0.000379 s⁻¹ | 171000 M⁻¹ s⁻¹ | 1.61 nM | 5.47e-05 s⁻¹ | 34000 M⁻¹ s⁻¹ |  |  | 
5 | B5 | 0.00019 s⁻¹ | 29700 M⁻¹ s⁻¹ | 86.4 nM | 0.00328 s⁻¹ | 38000 M⁻¹ s⁻¹ |  |  | 
6 | B6 | 2.64e-07 s⁻¹ | 100000 M⁻¹ s⁻¹ | 0.177 nM | 1.57e-05 s⁻¹ | 88900 M⁻¹ s⁻¹ |  |  | 
7 | B7 | 3.82e-06 s⁻¹ | 6910 M⁻¹ s⁻¹ | 0.887 nM | 6.7e-06 s⁻¹ | 7560 M⁻¹ s⁻¹ |  |  | 
8 | B8 | 0.00193 s⁻¹ | 9050 M⁻¹ s⁻¹ | 123 nM | 0.00116 s⁻¹ | 9490 M⁻¹ s⁻¹ |  |  | 
9 | B9 |  |  | 13.6 nM | 0.000401 s⁻¹ | 29400 M⁻¹ s⁻¹ |  |  | 
10 | B10 | 3.91e-07 s⁻¹ | 3000 M⁻¹ s⁻¹ | 0.0564 nM | 1.21e-05 s⁻¹ | 214000 M⁻¹ s⁻¹ | 0.13 nM |  | 
11 | B11 |  |  | 39.5 nM | 0.00095 s⁻¹ | 24000 M⁻¹ s⁻¹ |  |  | 
12 | B12 | 2.66e-07 s⁻¹ | 108000 M⁻¹ s⁻¹ | 0.168 nM | 2.2e-05 s⁻¹ | 131000 M⁻¹ s⁻¹ |  |  | 
13 | B13 |  |  | 11.6 nM | 0.000886 s⁻¹ | 76300 M⁻¹ s⁻¹ |  |  | 
14 | B14 | 2.11e-05 s⁻¹ | 26500 M⁻¹ s⁻¹ | 37.1 nM | 0.00166 s⁻¹ | 44700 M⁻¹ s⁻¹ |  |  | 
15 | B15 |  |  | 22.8 nM | 0.000811 s⁻¹ | 35500 M⁻¹ s⁻¹ |  |  | 
16 | B16 | 1.09e-05 s⁻¹ | 27700 M⁻¹ s⁻¹ | 2.15 nM | 0.00195 s⁻¹ | 905000 M⁻¹ s⁻¹ |  |  | 
17 | B17 | 1.36e-07 s⁻¹ | 27000 M⁻¹ s⁻¹ | 13.5 nM | 0.00131 s⁻¹ | 97100 M⁻¹ s⁻¹ |  |  | 
18 | B18 | 0.0156 s⁻¹ | 19200 M⁻¹ s⁻¹ | 564 nM | 0.00286 s⁻¹ | 5060 M⁻¹ s⁻¹ |  |  | 
19 | B19 |  |  | 1.57 nM | 0.000535 s⁻¹ | 341000 M⁻¹ s⁻¹ |  |  | 
20 | B20 | 6.04e-06 s⁻¹ | 29700 M⁻¹ s⁻¹ | 12.6 nM | 0.00166 s⁻¹ | 132000 M⁻¹ s⁻¹ |  |  | 
21 | B21 |  |  | 6770 nM | 0.011 s⁻¹ | 1630 M⁻¹ s⁻¹ |  |  | 
22 | B22 |  |  | 9.42 nM | 0.0022 s⁻¹ | 234000 M⁻¹ s⁻¹ |  |  | 
23 | B23 |  |  |  |  |  |  | 28.4% | 79
24 | B24 | 0.000866 s⁻¹ | 525000 M⁻¹ s⁻¹ | 22.3 nM | 0.00465 s⁻¹ | 208000 M⁻¹ s⁻¹ |  |  | 
25 | B25 | 8.85e-05 s⁻¹ | 46400 M⁻¹ s⁻¹ | 12.6 nM | 0.000145 s⁻¹ | 11500 M⁻¹ s⁻¹ |  |  | 
